In PMC13317680, “Molecular architecture of the human citrate synthase–malate dehydrogenase 2 metabolon” (Acta Crystallographica Section D: Structural Biology, 2026):
Blank lines part the entries; values can stand above or below the molecule they belong to.

What was measured:
[1] = molecular target: Human citrate synthase (human) (UniProt O75390); assay: SEC-SAXS; glutaraldehyde cross-linked hMDH2-hCS; Shodex KW-803, 50 mM sodium phosphate pH 7, 100 mM NaCl, 2 mM DTT, 2% glycerol, 10°C; LightDock models fitted with FoXS
[2] = molecular target: Human citrate synthase (human) (UniProt O75390)
[3] = molecular target: the molecule itself; assay: SAXS (SEC-SAXS and HT-SAXS); hCS alone, 0.07-2.0 mg/ml in 50 mM Tris-HCl, 100 mM NaCl, 0.1 mM EDTA pH 7.5, 10°C; data compared with crystal structures and a normal-mode model (FoXS)

stoichiometry N (hMDH2 (dimer) per hCS (dimer)) [1]: 2
NADH production (A340), hMDH2 titrated into 2.5 µM hCS at hMDH2:hCS molar ratios 0:1 to 3:1; no saturation (hMDH2 dimer per hCS dimer) [2]: > 1
Molecule: Human mitochondrial malate dehydrogenase 2 (from UniProt P40926-1 25-338) (enzyme)

B1: Human citrate synthase (enzyme, UniProt O75390 28-466, looked up)
chain: ASSTNLKDILADLIPKEQARIKTFRQQHGKTVVGQITVDMMYGGMRGMKGLVYETSVLDPDEGIRFRGFSIPECQKLLPKAKGGEEPLPEGLFWLLVTGHIPTEEQVSWLSKEWAKRAALPSHVVTMLDNFPTNLHPMSQLSAAVTALNSESNFARAYAQGISRTKYWELIYEDSMDLIAKLPCVAAKIYRNLYREGSGIGAIDSNLDWSHNFTNMLGYTDHQFTELTRLYLTIHSDHEGGNVSAHTSHLVGSALSDPYLSFAAAMNGLAGPLHGLANQEVLVWLTQLQKEVGKDVSDEKLRDYIWNTLNSGRVVPGYGHAVLRKTDPRYTCQREFALKHLPNDPMFKLVAQLYKIVPNVLLEQGKAKNPWPNVDAHSGVLLQYYGMTEMNYYTVLFGVSRALGVLAQLIWSRALGFPLERPKSMSTEGLMKFVDSKSG
notes: Human citrate synthase, mitochondrial, UniProt O75390, amino acids 28-466; Dimer in solution by SAXS; PDB 5uzr was the starting model for the SAXS fit; also called hCS; CS; source: E. coli, purified (HisTrap nickel column, Sephacryl S200 SEC)
stoichiometry N [3]: 2
